Test results from patent publication US20240166594A1, “PHOTOCAGED CITRULLINE ANALOGS AND METHODS FOR SITE-SPECIFIC INCORPORATION OF CITRULLINE INTO PROTEINS” (University of Massachusetts, priority 2021, published 2024).
Several values for one entry are separate records, joined by “and”; a condition that tells them apart may be missing. Identical values can stand only once. Blank lines part the entries; values can stand above or below the molecule they belong to. Where a SMILES comes first, the peptide text is derived from it.

How the values were obtained:
[1] = target: T1, WT PAD4 (Homo sapiens, UniProt Q9UM07); assay: Thermal shift assay with GSK199, wild-type PAD4; assay type: binding; details: GSK199 10 μM, EXPI293F lysate
T1 construct: FLAG (N); His tag (C); expressed in transfected cells; host or cells: EXPI293F
Experimental: (§1) A 50 μL reaction mixture (EXPI293F lysate containing overexpressed wild-type PAD4 (1.5 mg/mL) or R374Cit mutant (2 mg/mL), 1×PBS and DMSO (1% final)) was heated at various temperatures (25, 40, 50, 60, 65, 70, 75, 85 and 90° C.) for 5 min followed by flash freezing with liquid nitrogen. The samples were thawed and the precipitated proteins were separated by centrifugation (15000 rpm, 30 min) at 4° C. 40 μL of the supernatant was mixed with 10 μL of 5×SDS-PAGE loading dye and the mixture was boiled at 95° C. for 10 min. The proteins were separated by SDS-PAGE using a 4-20% gradient gel and the soluble fractions of PAD4 were quantitated by western blot analysis using a rabbit polyclonal anti-PAD4 antibody. This assay was also performed separately in the presence of CaCl2 (1 mM final) and a PAD4-selective ligand, GSK199 (10 μM final). For these assays, the reaction mixture was incubated with CaCl2 or GSK199 at room temperature for 5 min before heating up at different temperatures. All the reactions were performed at least in duplicate.

[2] = test system: R374Cit PAD4; assay: Thermal shift assay with GSK199, R374Cit PAD4; assay type: binding; details: GSK199 10 μM
Experimental: as §1

[3] = Solubility of decaged peptide observed during SM70 decaging; assay type: physicochemical; details: decaged peptide from SM70; turbid even in 1:1 acetonitrile/PBS
Experimental: FIG. 10. (A) Decaging of SM70, a PAD4-derived peptide (residues 363-372 with SM60 at the 372 position. Prolines at 365 and 371 positions were replaced with W and A, respectively, and a lysine residue was added to the C-terminus for ease of synthesis.). (B) HPLC chromatogram of SM70 before and after 5 min of 365 nm irradiation. […] Even after performing the reaction in 1:1 acetonitrile/PBS, the solution became turbid upon the formation of the decaged peptide. Assay condition: 200 μM SM70, 2 mM DTT, 1:1 acetonitrile/PBS (pH 7.4). (C) ESI mass spectrum of the citrulline-containing peptide (decaged product).

[4] = test system: HEK293T cells; assay: Cytotoxicity of PAD4 expression in HEK293T cells (CellTiter-Blue); assay type: cell-based
Experimental: HEK293T cells were seeded (2×10^4 cells/well) on 96-well plate and were allowed to grow in DMEM (supplemented with 10% heat-inactivated fetal bovine serum, 100 units/mL penicillin, 100 μg/mL streptomycin) for 48 h. Cells were then transfected with appropriate plasmids (120 ng PAD4 plasmid and 80 ng pIDTSMART eRF1 E55D for each well) using Lipofectamine 2000 (500 ng for each well) in Opti-MEM medium (Gibco). After 5 h, the medium was changed to DMEM and DMSO (for WT PAD4) or SM60 (0.25, […] and 1 mM for R374Cit PAD4) was added. Cells were then allowed to grow at 37° C. for 48 h. Cell viability was measured before and after photodecaging (by UV treatment for 3 min) using CellTiter-Blue® (Promega) by following the manufacturer's protocol. Untransfected cells served as the control. All the experiments were performed in triplicate.

[5] = Michaelis-Menten kinetics of wild-type and mutant PAD4 (COLDER assay); assay type: biochemical; details: substrate BAEE, 10 mM CaCl2, pH 7.4, 37° C.
Experimental: PAD4 (50 nM final for wild-type, 75 nM final for R372Cit, and 100 nM final for R374Cit) was added to a pre-warmed (10 min, 37° C.) reaction mixture (60 μL final) containing various concentrations of BAEE (0, 0.5, 1, 2.5, 5 and 10 mM), CaCl2 (10 mM), TRIS-HCl (100 mM, pH 7.4), NaCl (50 mM) and DTT (2 mM). This mixture was incubated at 37° C. for 45 min (for wild-type), 90 min (for R374Cit) and 120 min (for R372Cit) followed by quenching with liquid nitrogen. The rate of citrulline formation at various BAEE concentrations was quantified with the COLDER assay. The rates were plotted against the BAEE concentration and were fit to the Michaelis-Menten equation using Graphpad Prism. All the reactions were performed at least in duplicate.

[6] = Calcium-dependence of wild-type PAD4 (COLDER assay); assay type: biochemical; details: 10 mM BAEE, pH 7.4, 37° C.
Experimental: PAD4Bac (purified from bacterial expression system) and PAD4Mam (purified from mammalian expression system) (6 μL of 0.5 μM stock, 50 nM final) were added to separate pre-warmed (10 min, 37° C.) reaction mixtures (60 μL final) containing BAEE (10 mM), various concentrations of CaCl2 (0, 0.25, 0.5, 1, 2.5, 5 and 10 mM), TRIS-HCl (100 mM, pH 7.4), NaCl (50 mM) and DTT (2 mM). This mixture was incubated at 37° C. for 45 min followed by flash freezing with liquid nitrogen. The production of citrulline at various concentration of CaCl2 by PAD4 was quantified with the COLDER assay. (Tanikawa, et al. 2012 Nat. Commun. 3, 676; Zhang, et al. 2012 Proc. Natl. Acad. Sci. USA 109, 13331-13336.)
The calcium-dependence of citrulline production by PAD4 was fit to the equation 2,
v=Vmax*[Ca^2+]^h/(K0.5^h+[Ca^2+]^h) (2)
using Graphpad Prism, where v is the velocity of the reaction, Vmax is the maximum velocity of the reaction, [Ca^2+] is the concentration of calcium, h is the hill slope and K0.5 is the calcium concentration that gives half-maximal velocity. All the reactions were performed at least in duplicate.

[7] = test system: histone H3; assay: Histone H3 citrullination in live HEK293T cells (western blot); assay type: cell-based; details: calcium and ionomycin, 3 h
Experimental: HEK293T cells were seeded (4×10^5 cells/well) on 6-well plates and were allowed to grow in DMEM (supplemented with 10% heat-inactivated fetal bovine serum, 100 units/mL penicillin, 100 μg/mL streptomycin) for 48 h. Cells were then transfected with appropriate plasmids (3 μg PAD4 plasmid and 2 μg pIDTSMART eRF1 E55D for each well) using Lipofectamine 2000 (12.5 μg for each well) in Opti-MEM medium (Gibco). After 5 h, the medium was changed to DMEM and DMSO (for WT PAD4) or SM60 (1 mM for R374Cit PAD4) was added. Cells were then allowed to grow at 37° C. for 48 h. Cells were washed with serum-free DMEM (supplemented with 100 units/mL penicillin, […] streptomycin), resuspended in the same medium and were irradiated with 365 nm UV for 3 min. Then the cells were treated with CaCl2 (1 mM) and a combination of CaCl2 (1 mM) and ionomycin (5 μM) for 3 h at 37° C. After this, cells were lysed and the lysates were analyzed by Western blotting using anti-histone H3 citrulline (R2,8,17) and anti-histone H3 primary antibodies. PAD4 expression was quantified by using an anti-PAD4 primary antibody. Band intensities for citrullinated histone H3 were normalized against those for histone H3 and PAD4 using the following algorithm,
Normalized histone H3Cit=[H3Cit/(H3_33 PAD4)]×10^6
All the experiments were performed in triplicate.

[8] = Thermal shift assay, melting temperature of PAD4 in EXPI293F lysate; assay type: physicochemical; details: no ligand
Experimental: as §1

T1 sequence (Q9UM07 whole entry G112A): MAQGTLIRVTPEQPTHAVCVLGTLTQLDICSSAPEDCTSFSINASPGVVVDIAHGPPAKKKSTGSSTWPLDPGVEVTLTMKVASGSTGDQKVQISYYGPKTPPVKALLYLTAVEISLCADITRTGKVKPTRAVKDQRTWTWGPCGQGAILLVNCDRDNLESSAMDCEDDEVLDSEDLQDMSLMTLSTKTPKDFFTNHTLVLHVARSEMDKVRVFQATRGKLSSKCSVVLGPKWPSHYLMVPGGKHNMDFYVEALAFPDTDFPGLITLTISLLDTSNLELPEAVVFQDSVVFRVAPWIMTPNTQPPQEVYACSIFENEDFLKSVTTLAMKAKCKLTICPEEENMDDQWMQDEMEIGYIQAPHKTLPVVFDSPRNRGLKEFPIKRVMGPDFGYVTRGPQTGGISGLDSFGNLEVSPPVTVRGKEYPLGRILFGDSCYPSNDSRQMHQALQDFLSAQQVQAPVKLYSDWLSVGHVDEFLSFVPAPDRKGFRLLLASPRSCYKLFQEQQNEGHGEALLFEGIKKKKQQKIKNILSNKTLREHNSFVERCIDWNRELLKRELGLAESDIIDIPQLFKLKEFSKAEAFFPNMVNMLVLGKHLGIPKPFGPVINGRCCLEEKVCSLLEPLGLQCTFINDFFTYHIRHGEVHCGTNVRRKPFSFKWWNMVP

effect on Tm of WT PAD4 [1]: increased the Tm of WT PAD4
binding to R374Cit mutant ([2]; inferred from thermal shift): binds poorly to the R374Cit mutant
Molecule: CCn1c(-c2nc3cc(C(=O)N4CCCC(N)C4)cc(OC)c3n2C)cc2cccnc21 (stereo not shown) [GSK199]
effect on Tm of R374Cit PAD4 ([2]; EXPI293F lysate): did not increase the Tm of the R374Cit mutant

Molecule: CC(C)C[C@H](NC(=O)[C@@H](N)[C@@H](C)O)C(=O)N[C@@H](Cc1c[nH]c2ccccc12)C(=O)N[C@H](C(=O)N[C@H](C(=O)N[C@@H](Cc1ccccc1)C(=O)N[C@@H](CC(=O)O)C(=O)N[C@@H](CO)C(=O)N[C@@H](C)C(=O)N[C@@H](CCCNC(N)=O)C(=O)N[C@@H](CCCCN)C(=O)O)C(C)C)C(C)C [decaged product] (HELM PEPTIDE1{T.L.W.V.V.F.D.S.A.[Cit].K}$$$$V2.0)
solubility in aqueous buffer [3]: extremely low solubility in aqueous buffer

Molecule: PAD4: Protein Arginine Deiminase 4 (WT and R374Cit) overexpressed in HEK293T cells
cytotoxicity of expression [4]: does not cause any cytotoxicity

Molecule: PAD4Bac: wild-type PAD4 purified from bacterial (E. coli) expression system
Km [5]: 700 ± 100 µM
kcat [5]: 3.4 ± 0.2 S^−1
K0.5 (Ca^2+ concentration for half-maximal activity) [6]: 0.9 mM and 0.9 ± 0.10 mM

Molecule: PAD4Mam: wild-type PAD4 purified from mammalian expression system (HEK293T), N-terminal FLAG and C-terminal His tag
Km [5]: 1100 ± 200 µM
kcat [5]: 3.7 ± 0.1 S^−1
K0.5 (Ca^2+ concentration for half-maximal activity) [6]: 0.9 mM and 0.9 ± 0.05 mM

Molecule: WT PAD4: wild-type Protein Arginine Deiminase 4
times more active than the R374Cit mutant for the citrullination of histone H3 [7]: 6 times
melting temperature (Tm) [8]: 62.9 °C
